From PMC3225930 come the findings set out here.

Assay [1] addresses α-chymotrypsin. The experiment in a line: enzyme inhibition kinetics (reciprocal plots); α-chymotrypsin with substrate N-benzoyl-tyrosine ethyl ester (BTEE, 0-2 mM), 50 mM Tris-HCl pH 7.8, 25 °C; read at 253 nm; Spi1C at 0, 22.7, 45.4 and 68.1 nmol/L in the Lineweaver-Burk plots.
Assay [2] deals with trypsin.
Assay [3] concerns the target α-chymotrypsin.
Assay [4] deals with trypsin. Description: enzyme inhibition kinetics (reciprocal plots); trypsin with substrate H-D-Phe-Pip-Arg-pNA (S-2238, 0-2 mM), 50 mM Tris-HCl pH 7.8, 25 °C; Spi1C pre-incubated with the enzyme for 15 min; pNA read at 405 nm; Spi1C at 0, 22.7, 45.4 and 68.1 nmol/L in the Lineweaver-Burk plots.

Usually Ki stands for the dissociation constant of the complex between target and ligand, obtained from inhibition or displacement. A lower Ki goes with tighter binding. In the case of “recombinant Spi1C protein (natural protein)”, the values for the Ki in the assay with α-chymotrypsin [1] and with trypsin [4] were 17.9 nM and 15.2 nM, respectively. Besides, the specific inhibitor activity (inhibition of trypsin activity) with trypsin [2] is 6940 U/mg. In addition, in the assay with α-chymotrypsin [3], the specific inhibitor activity (inhibition of α-chymotrypsin activity) turned out to be 3640 U/mg.
